Data: the RNAGym collection of RNA variant scans (doi:10.1093/molbev/msab373)

B1: Azoarcus group I ribozyme (parent)
chain: GUGCCUUGCGCCGGGAAACCACGCAAGGGAUGGUGUCAAAUUCGGCGAAACCUAAGCGCCCGCCCGGGCGUAUGGCAACGCCGAGCCAAGCUUCGGCGCCUGCGCCGAUGAAGGUGUAGAGACUAGACGGCACCCACCUAAGGCAAACGCUAUGGUGAAGGCAUAGUCCAGGGAGUGGCGAAAGUCACACAAACCGG

Variants of: B1
Assay: reverse-splicing fitness (ratio to wild type); higher = more active; in vitro selection; Mg2+ level not given
Summary of the method: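 An in vitro group I ribozyme library with randomized positions was T7-transcribed and gel-purified. In triplicate, 10 pmol RNA in EPPS pH 7.5 was reacted with 50 pmoles of a 30-nt RNA substrate for 1 h at 37 °C across several added MgCl2 levels (1–48 mM), then stopped with EDTA. Products were reverse transcribed from a substrate-complementary primer, PCR-amplified and sequenced (HiSeq 4000). Fitness is a variant's read proportion after selection over that before, normalised to wild type.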

Row | Variant | reverse-splicing fitness
1 | C82U A111G A120C A145G C150U U176A | 0.0138
2 | C82U A111G A120C A145G C150U U176C | 0.0274
3 | C82U A111G A120C A145G C150U U176G | 0.00625
4 | C82U A111G A120C A145G C169A | 0.00713
5 | C82U A111G A120C A145G C169A U176A | 0.0153
6 | C82U A111G A120C A145G C169A U176C | 0.0205
7 | C82U A111G A120C A145G C169A U176G | 0.00336
8 | C82U A111G A120C A145G C169G | 0.00801
9 | C82U A111G A120C A145G C169G U176A | 0.0181
10 | C82U A111G A120C A145G C169G U176C | 0.0179
11 | C82U A111G A120C A145G C169G U176G | 0.00407
12 | C82U A111G A120C A145G C169U | 0.0129
13 | C82U A111G A120C A145G C169U U176A | 0.0141
14 | C82U A111G A120C A145G C169U U176C | 0.0146
15 | C82U A111G A120C A145G C169U U176G | 0.00401
16 | C82U A111G A120C A145G U176A | 0.0202
17 | C82U A111G A120C A145G U176C | 0.0318
18 | C82U A111G A120C A145G U176G | 0.00519
19 | C82U A111G A120C A145U | 0.0519
20 | C82U A111G A120C A145U C150A | 0.0105
21 | C82U A111G A120C A145U C150A C169A | 0.00739

Row | Variant | reverse-splicing fitness
22 | C82U A111G A120C A145U C150A C169A U176A | 0.0128
23 | C82U A111G A120C A145U C150A C169A U176C | 0.00758
24 | C82U A111G A120C A145U C150A C169A U176G | 0.00469
25 | C82U A111G A120C A145U C150A C169G | 0.00798
26 | C82U A111G A120C A145U C150A C169G U176A | 0.0153
27 | C82U A111G A120C A145U C150A C169G U176C | 0.0112
28 | C82U A111G A120C A145U C150A C169G U176G | 0.00457
29 | C82U A111G A120C A145U C150A C169U | 0.00709
30 | C82U A111G A120C A145U C150A C169U U176A | 0.0139
31 | C82U A111G A120C A145U C150A C169U U176C | 0.0132
32 | C82U A111G A120C A145U C150A C169U U176G | 0.00404
33 | C82U A111G A120C A145U C150A U176A | 0.0116
34 | C82U A111G A120C A145U C150A U176C | 0.0125
35 | C82U A111G A120C A145U C150A U176G | 0.0049
36 | C82U A111G A120C A145U C150G | 0.00964
37 | C82U A111G A120C A145U C150G C169A | 0.00804
38 | C82U A111G A120C A145U C150G C169A U176A | 0.00839
39 | C82U A111G A120C A145U C150G C169A U176C | 0.00798
40 | C82U A111G A120C A145U C150G C169A U176G | 0.00477
41 | C82U A111G A120C A145U C150G C169G | 0.00698
42 | C82U A111G A120C A145U C150G C169G U176A | 0.0063

Row | Variant | reverse-splicing fitness
43 | C82U A111G A120C A145U C150G C169G U176C | 0.00388
44 | C82U A111G A120C A145U C150G C169G U176G | 0.00386
45 | C82U A111G A120C A145U C150G C169U | 0.00776
46 | C82U A111G A120C A145U C150G C169U U176A | 0.00625
47 | C82U A111G A120C A145U C150G C169U U176C | 0.0124
48 | C82U A111G A120C A145U C150G C169U U176G | 0.00471
49 | C82U A111G A120C A145U C150G U176A | 0.00455
50 | C82U A111G A120C A145U C150G U176C | 0.00882
51 | C82U A111G A120C A145U C150G U176G | 0.00286
52 | C82U A111G A120C A145U C150U | 0.0338
53 | C82U A111G A120C A145U C150U C169A | 0.00793
54 | C82U A111G A120C A145U C150U C169A U176A | 0.0106
55 | C82U A111G A120C A145U C150U C169A U176C | 0.00827
56 | C82U A111G A120C A145U C150U C169A U176G | 0.00488
57 | C82U A111G A120C A145U C150U C169G | 0.008
58 | C82U A111G A120C A145U C150U C169G U176A | 0.0133
59 | C82U A111G A120C A145U C150U C169G U176C | 0.0121
60 | C82U A111G A120C A145U C150U C169G U176G | 0.00414
61 | C82U A111G A120C A145U C150U C169U | 0.00989
62 | C82U A111G A120C A145U C150U C169U U176A | 0.0157
63 | C82U A111G A120C A145U C150U C169U U176C | 0.0124

Row | Variant | reverse-splicing fitness
64 | C82U A111G A120C A145U C150U C169U U176G | 0.00402
65 | C82U A111G A120C A145U C150U U176A | 0.0147
66 | C82U A111G A120C A145U C150U U176C | 0.0223
67 | C82U A111G A120C A145U C150U U176G | 0.00565
68 | C82U A111G A120C A145U C169A | 0.00556
69 | C82U A111G A120C A145U C169A U176A | 0.00844
70 | C82U A111G A120C A145U C169A U176C | 0.00627
71 | C82U A111G A120C A145U C169A U176G | 0.00329
72 | C82U A111G A120C A145U C169G | 0.00646
73 | C82U A111G A120C A145U C169G U176A | 0.00935
74 | C82U A111G A120C A145U C169G U176C | 0.00823
75 | C82U A111G A120C A145U C169G U176G | 0.00375
76 | C82U A111G A120C A145U C169U | 0.0104
77 | C82U A111G A120C A145U C169U U176A | 0.0139
78 | C82U A111G A120C A145U C169U U176C | 0.0132
79 | C82U A111G A120C A145U C169U U176G | 0.00307
80 | C82U A111G A120C A145U U176A | 0.017
81 | C82U A111G A120C A145U U176C | 0.0251
82 | C82U A111G A120C A145U U176G | 0.00658
83 | C82U A111G A120C C150A | 0.0113
